Reference: publication PMC10715145
Substitutions are numbered along the chain they refer to.

B1: ACTT6 promoter WT probe (dsDNA)
DNA 1: CGTGACTGACATCCCGCCAAGGCTAACCATCCGGGA
DNA 2: TCCCGGATGGTTAGCCTTGGCGGGATGTCAGTCACG
B2: ACTT6 promoter mutant competitor (dsDNA)
DNA 1: B1 DNA 1 with C17A, C18A, A19C, A20C
DNA 2: B1 DNA 2 with T17G, T18G, G19T, G20T
B3: ACTTR promoter WT probe (dsDNA)
DNA 1: ACGAACCACATCCTCGCCAAGGACATGAATGACACA
DNA 2: TGTGTCATTCATGTCCTTGGCGAGGATGTGGTTCGT

Tests used:
PacCZF-MBP [1] = biological target: T1, PacCZF-MBP (Alternaria alternata (tangerine …, UniProt A0A177DU84 1-150)); test: EMSA; […]; 28°C for 20 min; […]; buffer, […]; settings: protein: recombinant; tags: MBP (pMAL-c5x); label: 3'-biotin; blunt
PacCZF-MBP [2] = biological target: T1, PacCZF-MBP; test: competition; excess unlabeled mutant vs labeled WT ACTT6 probe; […]; 28°C for 20 min; […]; buffer, […]; settings: protein: recombinant; tags: MBP (pMAL-c5x); label: unlabeled; blunt

Binder | binding result (PacCZF-MBP [1]) | binding result (PacCZF-MBP [2])
B1 | binds | –
B2 | – | no binding
B3 | binds | –
